Assay results: PMC3541234, “Functional Characterization of a Chimeric Soluble Fas Ligand Polymer with In Vivo Anti-Tumor Activity” (PLoS ONE, 2013)
Several values for one entry are separate records, joined by “and”; a condition that tells them apart may be missing. Equal values may be shown once.

B1: cleaved FasL (cFasL), spontaneously cleaved membrane FasL (ligand, human, UniProt P48023 127-281, looked up)
chain: LEKQIGHPSPPPEKKELRKVAHLTGKSNSRSMPLEWEDTYGIVLLSGVKYKKGGLVINETGLYFVYSKVYFRGQSCNNLPLSHKVYMRNSKYPQDLVMMEGKMMSYCTTGQMWARSSYLGAVFNLTSADHLYVNVSELSLVNFEESQTFFGLYKL
notes: human FasL, soluble product of the metalloprotease cleavage between amino acids 126 and 127; the C-terminal end 281 is the one printed for the extracellular domain; Homotrimer by gel filtration; also called sFasL; metalloprotease-cleaved FasL; source: COS cells transfected with wild-type FasL, supernatant (spontaneously cleaved by a metalloprotease); for SPR in serum-free medium, concentrated 100 …
B2: Recombinant Fas-Fc (Fc fusion, UniProt P25445 26-173, looked up)
chain: QVTDINSKGLELRKTVTTVETQNLEGLHHDGQFCHKPCPPGERKARDCTVNGDEPDCVPCQEGKEYTDKAHFSSKCRRCRLCDEGHGLEVEINCTRTQNTKCRCKPNFFCNSTVCEHCDPCTKCEHGIIKECTLTSNTKCKEEGSRSN
notes: Fas (CD95/APO-1) part of a bought recombinant Fas-Fc; The reagents section also names a laboratory-made Fas-Fc purified on protein A; the SPR methods name the R&D Systems protein; source: bought: R&D Systems

What was measured:
[1] = biological target: the molecule itself; test: SEC; gel filtration on Sephacryl S-200-HR and S-300-HR columns; concentrated COS supernatants, eluted in PBS at 0.3 ml/min; FasL in the fractions found by ELISA; size of the oligomer of the FasL construct
[2] = biological target: B2; test: SPR; BIAcore 3000; Fas-Fc covalently coupled to a CM5 flow cell (2,000 RU); FasL constructs as concentrated, dialysed COS supernatants flowed over (0.2-100 nM IgFasL, 0.2-44 nM cFasL, 0.2-37.5 nM D2FasL, 0.25-8 nM D1IgD2FasL) in Hepes-buffered saline, 30 ul/min; 5 min association, 11 min dissociation; BIAeval 4.1; details: one partner purified
[3] = biological target: B1; test: as above; details: one partner purified

Binder | stoichiometry N [1] | Kd [2] [nM] | koff [2] [s⁻¹] | kon [2] [M⁻¹ s⁻¹] | Kd [3] [nM] | koff [3] [s⁻¹] | kon [3] [M⁻¹ s⁻¹]
D1IgD2FasL (D1IgD2 modules of gp190 fused to the extracellular domain of hFasL) (ligand, UniProt P42702 49-542, looked up, extracellular domain of human FasL (hFasL), amino acids 108 to 281; source: COS cells, transiently transfected (pED4 vector), supernatant; for SPR in Opti-MEM, concentrated 100 times, dialysed against PBS) APHDLKCVTNNLQVWNCSWKAPSGTGRGTDYEVCIENRSRSCYQLEKTSIKIPALSHGDYEITINSLHDFGSSTSKFTLNEQNVSLIPDTPEILNLSADFSTSTLYLKWNDRGSVFPHRSNVIWEIKVLRKESMELVKLVTHNTTLNGKDTLHHWSWASDMPLECAIHFVEIRCYIDNLHFSGLEEWSDWSPVKNISWIPDSQTKVFPQDKVILVGSDITFCCVSQEKVLSALIGHTNCPLIHLDGENVAIKIRNISVSASSGTNVVFTTEDNIFGTVIFAGYPPDTPQQLNCETHDLKEIICSWNPGRVTALVGPRATSYTLVESFSGKYVRLKRAEAPTNESYQLLFQMLPNQEIYNFTLNAHNPLGRSQSTILVNITEKVYPHTPTSFKVKDINSTAVKLSWHLPGNFAKINFLCEIEIKKSNSVQEQRNVTIKGVENSSYLVALDKLNPYTLYTFRIRCSTETFWKWSKWSNKKQHLTTEASPSKGPDTWQKELAELRESTSQMHTASSLEKQIGHPSPPPEKKELRKVAHLTGKSNSRSMPLEWEDTYGIVLLSGVKYKKGGLVINETGLYFVYSKVYFRGQSCNNLPLSHKVYMRNSKYPQDLVMMEGKMMSYCTTGQMWARSSYLGAVFNLTSADHLYVNVSELSLVNFEESQTFFGLYKL | 6 | 25.6 | 0.0033 | 130000 | – | – | –
D2FasL (D2 module of gp190 fused to the extracellular domain of hFasL) (ligand, UniProt P42702 329-542, looked up, extracellular domain of human FasL (hFasL), amino acids 108 to 281; source: COS cells, transiently transfected (pED4 vector), supernatant; for SPR in Opti-MEM, concentrated 100 times, dialysed against PBS) AGYPPDTPQQLNCETHDLKEIICSWNPGRVTALVGPRATSYTLVESFSGKYVRLKRAEAPTNESYQLLFQMLPNQEIYNFTLNAHNPLGRSQSTILVNITEKVYPHTPTSFKVKDINSTAVKLSWHLPGNFAKINFLCEIEIKKSNSVQEQRNVTIKGVENSSYLVALDKLNPYTLYTFRIRCSTETFWKWSKWSNKKQHLTTEASPSKGPDTWQKELAELRESTSQMHTASSLEKQIGHPSPPPEKKELRKVAHLTGKSNSRSMPLEWEDTYGIVLLSGVKYKKGGLVINETGLYFVYSKVYFRGQSCNNLPLSHKVYMRNSKYPQDLVMMEGKMMSYCTTGQMWARSSYLGAVFNLTSADHLYVNVSELSLVNFEESQTFFGLYKL | 6 | 38.5 | 0.006 | 160000 | – | – | –
pFasL (polymeric soluble FasL; IgFasL chimera: Ig module of gp190 fused to the extracellular domain of hFasL) (ligand, UniProt P42702 246-328, looked up, Ig-like (Ig) module of the LIF receptor gp190, amino acids 246 to 328; extracellular domain of human FasL (hFasL), amino acids 108 to 281; source: COS cells, transiently transfected (pED4 vector), supernatant; for SPR in Opti-MEM, concentrated 100 times, dialysed against PBS; copies: 12) WIPDSQTKVFPQDKVILVGSDITFCCVSQEKVLSALIGHTNCPLIHLDGENVAIKIRNISVSASSGTNVVFTTEDNIFGTVIFQKELAELRESTSQMHTASSLEKQIGHPSPPPEKKELRKVAHLTGKSNSRSMPLEWEDTYGIVLLSGVKYKKGGLVINETGLYFVYSKVYFRGQSCNNLPLSHKVYMRNSKYPQDLVMMEGKMMSYCTTGQMWARSSYLGAVFNLTSADHLYVNVSELSLVNFEESQTFFGLYKL | 12 and 6 | 11.6 | 0.00041 | 25000 | – | – | –
B1 | 3 | – | – | – | – | – | –
B2 | – | – | – | – | 69.4 | 0.0059 | 84000
